From the nanobody polyreactivity screen of Harvey et al. (2022)

Assay: yeast display, Sf9 membrane polyspecificity reagent, FACS + sequencing; frameworks hold sequencing errors
Outline: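 Galactose-induced (36–48 hours) yeast carrying a synthetic nanobody display library were exposed to 10% biotinylated, detergent-solubilized Sf9 membrane reagent at 4 °C for 1 hour. FACS followed streptavidin microbead enrichment, using low and high (top ~1%) gates for expression (anti-HA) and reagent binding (streptavidin). Colony PCR, MiSeq 2 × 250 sequencing and CDR-length filtering followed. Labels for polyreactivity reflect the gate of origin.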

| Sequence | polyreactivity (PSR sort gate) |
| --- | --- |
| QVQLVESGGGLVQAGGSLRLSCAASGSTFFDYAMGWYRQAPGKEREFVAAISRSGDTNYADSVKGRFTISRDNAKNTVYLQMNSLKPEDTAVYYCAKDWAYRRHWVGFYYWGQGTQVTVSS | low polyreactivity |
| QVQLVESGGGLVQAGGSLRLSCAASRSIFYFYAMGWYRHAPWKERELVAAINSGGTTNYADSVKGRFTISRDNAKNTVYSQMNSLKPEDTAVYYCAARLLIRYYYWGQGTLVTVSS | high polyreactivity |
| QVQLVESGGGLVQAGGSLRLSCAASGIIFDYYAMGWYRPAPGKERELVAAINSGSGSTYYADSVKGRFTISRDNAKNTVYLQMNSLKPEDTAVYYCAADGLSATLTWYSYDYWGQGTQVTVSS | low polyreactivity |
| QVQLVESGGRLVQAGGSLRLSCAASGFIFVDYAMGWYRQAPGKERELVAAITYDGGSTYYADSVKGRFTISRDNAKNTVYLPMNSLKPEDTAVYYCATQGLWIFVVVEMDYWGQGTQVTVSS | low polyreactivity |
| QVQLVESGGGLVQAGGSLRLSCAASGRIFAPYAMGWYRQAPGKEREFVATITHSGGRTYYADSVKGRFTISRDNAKNNVYLQMNSLKPEHTAVYYCAAGYGYNRLYYGVDYWGQGTQVTVSS | low polyreactivity |
| QVQLVESGGGLVQAGGSLRLSCAASGSTFYNYAMGWYRQAPGKERELVAAITSSGGSTYYADSVKGRFTISRDNAKNTVYLQMNSLKPEDTAVYYCNADDGYGQVHSISTYEMDYWGQGTQVTVSS | low polyreactivity |
| QVQLVESGGGLVQAGGSLRLSCAASGLISESYAMGWYRQAPGKERELVAAISSGGSTYYADSVKGRFTISRDNAKNTVYLQMNSLKPEDTAVYYCNATGYKYNYGHAYYYAVDYWGQGTQVTVSS | low polyreactivity |
| QVQLVESGGGLVQAGGSLRLSCAASGRIFSKYAMGWYRQAPGKERELVAAISNGGSTNYADTVKGRFTISRDNAKNTVYLQMNSLKPEDTAVYYCAKQDRVLYGGYDSWGQGTQVTVSS | low polyreactivity |
| QVQLVESGGALVQAGRSLRLSCAASGRTFWVYAMGWYRQAPGKERELVAAIRWSAGTTYYADSVKGRFTISRDNAKNTVYLQMNSLKPEDTAVYYCAKRRYTAISYGYWGQGTKVTVSS | high polyreactivity |
| QVQLVESGGGLVQAGGSLRLSCAASGSIFGDYAMGWYRQAPGKEREFVAGITRRGGRTYYADSVKGRFTISRDNAKNTVYLQMNSLKPEETAVYYCNAVYSSSLRSKYDYWGQGTQVTVSS | high polyreactivity |
| QVQLVESGGGLVQAGGSLRLSCAASGSTFSYYAMGWYRQAPGKERELVAAISGRGGSTYYADSVKGRFTISRDNAKNTVYLQMNSLKPEDTAVYYCAKGRLYTAYGLYSWGQGTQVTVSS | high polyreactivity |
| QVQLVESGGGLVQAGGSLRLSCAAAGITFKWNAMGWYRQAPGKERELVAVISSDGRTYYADSVKGRFTSSRDNAKNTVYLQMNSLKPEDTAVYYCARSHSYYPAGPYYYWGQGTQVTVSS | low polyreactivity |
| QVQLVESGGGIVQAGGSLRLSCAASGRIFGIYERGWLRQAPGKEREMVAGITRGDRTYADSVKGRFTISRDNAKNTVYLQMNSLKPVDTAVYYCNADVYPYKLALPAGMGYWGQGTQVTVSS | high polyreactivity |
| QVQLVESGGGLVQAGGSLRLSCAASGSTFVQYAMGWYRQAPGKERELVAAITRSGGSTYYADSVKGRFTISRDNAKNTVYLQMNSLKPEDTAVYYCAADFSSSYRAFNYWGQGTQLTVSS | high polyreactivity |
| QVQLVESGGGLVQAGGSLRLSCAASASIFAYNAMGWYRQAPGKERELVAAISYSGASTYYADSVKGRFTISRDYAKNTVYLQMNSLKPEDTAVYYCAATSRRRGTKGYWQVWPRFDYWGQGTQVTVSS | high polyreactivity |
| QVQLVESRGGLVQAGGSLRLSCAASGFIFFQYAMGWYRQAPGTERELVAAISGSGVTTYYADSVKGRFTISRDNAKNTVYLQMNSLKPEDTAVYYCNAALRWKYDWGQGTQVTVSS | low polyreactivity |

| Sequence | polyreactivity (PSR sort gate) |
| --- | --- |
| QVQLLESWGGLVQAGGSLRLSCAASGRTSTRNAMGWSRQAPGKERELVAAISWSGGRTHYADSVKWRFTISRDNAMNYVYYQMNSLKQEATAVYYCAAAYTGGQYYYSWGQGTQVSVSS | high polyreactivity |
| QVQLVESGGGLVQAGGSLRLSCAASGGIFYGYAMGWYRQAPGKERELVASISSDDRTNNADSVKGRFTISRDNAKNTVYLQMNSLKPEDTAVYSCNAELGSDTSNFDYWGQGTQVTVSS | low polyreactivity |
| QVQLVESGGGLVQAGGSLRLSCAASGSIFVKNVMGWYRQAPGKERELVAAISRGSSTYYADSVKGRFTISRDNAKNTVYLQMNSLKPEDTAVYYCAARGPYRLRNDEAFDYWGQGTQVTVSS | low polyreactivity |
| QVQLVESGGGLVQAGGSLRLSCAASGGTFRYYAMGWYRQAPGKERELVAAITSGDTTNYADSVKGRFTISRDNAKNTVYLQMNSLKPEDTAVYYCAKELQVRQAGDYWGQGTQVTVSS | low polyreactivity |
| QVQLVESAGGLVQAGGSLRLSCAASGSTFTLYAMGWYRQAPGKERELVAAISWSGDSTYYADSVKGRFTISRDNAKNTVYLQMNSLKPEDTAVYYCAAENVYGYDYWGQGTQVTESS | high polyreactivity |
| QVQLVESGGGLVQAGGSLRLSCAASGRTFRIYAMGWYRQAPGKEREFVAAITWSGGRTYYADSVKGRFTISRDNAKNTVYLQMNSLKPEDTAVYYCAADPTYLRTLRFGSYDYWGQGNQVTVSS | high polyreactivity |
| QVQLVESGGGLVQAGGSLRLICAASGSTFEQYAMGWYRQAPGKERELVAAINRGGSTYYADSVKGRFTISRDNAKNTVYLQMNSLKPEDTAVYYCAVYAFVRYRSRYGYWGQGTQVTVSS | high polyreactivity |
| QVQLVESGGGLVQAGGSLRLSCAASGSTFAHKAMGWYRQAPGKEGEFVAGISTNGGSTYYADSVKGRFTISRDNAKNTVYLQMNSLKPEDTAVYYCAAVNYYDQYGDYYWGQGTQVTVSS | low polyreactivity |
| QVQLVESGGGLVQAGGSLRLSCAASGYIFLGYDMVWYRQAPGKERELVAVINWSGGRTRYADSVKGRFTISRDNAKNTVYLQMNSLKPEDTAVYYCAAERSITYDYWGQGSQVTVSS | high polyreactivity |
| QVQLVESGGGLVQAGGSLRLSCAASGRIIYGYAMGWDRQAPGKEREFVARINVSGTSTFYADSVKGRFTISRDNAKNTVYLQMNSLKTVDTAVYDCAARGLPSNYYYYVHGYIMDHWGQGTQVSVSS | low polyreactivity |
| QVQLVESGGGLVQAGGSLRLSCASSGHIFIGNAMGWYRQAPGKERELVAAISRGGGRTYYADSVKGRFTISRDNAKNTVFLQMNILKPEDTAVYYCATVGQGPTKTPAGRYDYWGQGTQVTVSS | high polyreactivity |
| QVQLVESGGGLVQAGGSLRLSCAASGSTFSANTMGWYRQAPGKERELVAAISSSGVGTRYADSVKGRFTISRDNAKNTVYLQMNSLKPEDTSVFYCAADYRPTVITRNDYWGQGTQVTVSS | low polyreactivity |
| QVQLVESGGGLVQAGGSLRLSCAASGSTFVAYAMGWYRQAPGKERELVAAITYSGGRTYYADSVKGRFTISRDNAKNTVYLQMNSLKPEDTAVYSCAATGVFRDEYWGQGTQVTVSS | low polyreactivity |
| QVQLVESGGGLVQAGGSLRLSCAASGYTFQKYAMGWYIQAPGKERELVAAITRSGTRTYYADSVKGRFTISRDNAKNTVYLQMNSLKPEDTAVYYCAAETYYSIYDYWGQGTQVTVSS | high polyreactivity |
| QVQLVESGGGLVQAGGSLRLSCAASGRTFGYYAMGWYRQAPGKERELVAAISGNGDNTYYADSVKGRFTISRDNAKNTVYLQMNCLIPEDTAVYYCSLWYRYKYAPYRLHGYWGQGTQVTVSS | high polyreactivity |
| QVQLVESGGGLVQAGGSLRLSCAASGSIFWSNARGWYRQAPGKERELVATIDDDVGSTYYADSVKGRFTISRDNAKNTVYLQMNSLKPEDTAVYYCAADSVYYVMPYEYWGQGTQVTVSS | low polyreactivity |
